According to publication PMC3150435 (Nature structural & molecular biology, 2011):

B1: DARC1-60 (N-terminal 60 amino acids of Duffy Antigen/Receptor for Chemokines) with C4A, C51A and C54A, unsulfated (domain or fragment, UniProt Q16570 1-60, looked up)
chain: MGNALHRAELSPSTENSSQLDFEDVWNSSYGVNDSFPDGDYGANLEAAAPAHSANLLDDS

Tests used:
[1] = target: Plasmodium vivax Duffy-Binding Protein region II (RII-PvDBP), amino acids 211-525 (Plasmodium vivax) (UniProt P22290); assay: AUC
[2] = target: Plasmodium vivax Duffy-Binding Protein region II (RII-PvDBP), amino acids 211-525 (Plasmodium vivax, UniProt P22290 211-525); assay: ITC
Chain of Plasmodium vivax Duffy-Binding Protein region II (RII-PvDBP), amino acids 211-525 (P22290 211-525): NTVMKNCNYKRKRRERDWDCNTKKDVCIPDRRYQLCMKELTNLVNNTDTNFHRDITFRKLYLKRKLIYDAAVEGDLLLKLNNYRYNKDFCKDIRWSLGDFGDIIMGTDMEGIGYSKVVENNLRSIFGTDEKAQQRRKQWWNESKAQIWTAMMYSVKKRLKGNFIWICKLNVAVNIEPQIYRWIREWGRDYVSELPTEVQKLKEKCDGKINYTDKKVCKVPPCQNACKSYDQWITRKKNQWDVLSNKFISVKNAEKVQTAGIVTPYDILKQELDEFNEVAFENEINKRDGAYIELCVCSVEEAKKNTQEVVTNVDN

Molecule | stoichiometry N [1] | stoichiometry N [2]
Plasmodium vivax Duffy-Binding Protein region II (RII-PvDBP), amino acids 211-525 (from UniProt P22290 211-525) (domain or fragment) | 2 | 
B1 |  | 1
